The text below walks through data of US20210285971A1 (ROYAL INSTITUTION FOR THE ADVANCEMENT OF LEARNING MCGILL …, published 2021).

Broadly, the Kd is the equilibrium constant for the complex coming apart. A higher Kd goes with lower affinity.

Assay [1] concerns the target T1, synthetic Aβ35 peptide (UniProt P05067 672-706).
T1 construct: domain: Aβ35
The assay can be described thus: SPR (Biacore T200), single-cycle kinetics, peptide as analyte (7.8-2000 nM) over mab34 captured on an anti-mouse Fc sensor. As for the experimental part: (§1) Using a BIACORE T200 system (GE Healthcare Bio-Sciences AB, Upsala, Sweden; v2.0 Control and v1.0 Evaluation software), SPR experiments were performed at 25° C. using filtered (0.2 μm) and degassed HBS-EP+ buffer (10 mM HEPES pH 7.4; 150 mM NaCl; 3 mM EDTA; 0.05% (v/v) Tween™-20). Using Biacore's Amine Coupling Kit, Mouse Antibody Capture Kit, and CM5 sensors, an anti-mouse Fc antibody (14 μg/mL in 10 mM sodium acetate pH 5.0) was immobilized to the flow cells (8000 RU each) as recommended by GE. To assess binding specificity, a variety of Aβ peptides (0 2 μM; 4-fold dilution series) were titrated over reference (anti-mouse Fc antibody only) and active (1000 RU mab34 captured to anti-mouse Fc antibody) surfaces in single-cycle kinetic mode (25 uL/min.×5 min. association+10 min. dissociation). Between each sample series, surfaces were regenerated at 50 μL/min. using two 30 sec pulses of Pierce Gentle Ag/Ab Elution Buffer pH 6.6 (Thermo Scientific #21027) as well as 10 mM glycine pH 1.7.
(In general: SPR reads the build-up and loss of mass on a sensor chip optically.)

The target of assay [2] is T2, synthetic Aβ38 peptide (UniProt P05067 672-709).
T2 construct: domain: Aβ38
The assay is described as above. The method, then:
as §1

The target of assay [3] is T3, synthetic Aβ40 peptide (UniProt P05067 672-711).
T3 construct: domain: Aβ40
The assay is described as above. As for the experimental part: as §1

Assay [4] addresses T4, synthetic Aβ42 peptide (UniProt P05067 672-713).
T4 construct: domain: Aβ42; also called Abeta42
Described as above. As for the experimental part:
as §1

Assay [5] concerns the target Aβ34 G33A variant (G33A modified neo-epitope). The assay can be described thus: SPR (Biacore T200), single-cycle kinetics, Aβ34 variant peptide as analyte (7.8-2000 nM) over mab34 captured on an anti-mouse Fc sensor. The method, then:
as §1

For assay [6], the target named is T5, synthetic Aβ34 peptide.
T5 construct: Synthetic peptide from PSL, Germany
The assay is described as follows: SPR (Biacore T200), multi-cycle titration of Aβ34 (0-1.6 µM, 3-fold series) over mab34 captured on an anti-mouse Fc sensor; steady-state affinity fit of Requilibrium against concentration. The method, then: as §1, with “To assess binding specificity, a variety of Aβ peptides (0 2 μM; 4-fold dilution series) were titrated over reference (anti-mouse Fc antibody only) and active (1000 RU mab34 captured to anti-mouse Fc antibody) surfaces in single-cycle kinetic mode (25 uL/min.×5 min. association+10 min. dissociation).” left out

T1 sequence (P05067 672-706 limits assumed): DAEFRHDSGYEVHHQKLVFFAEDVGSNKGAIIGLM
T2 sequence (P05067 672-709 limits assumed): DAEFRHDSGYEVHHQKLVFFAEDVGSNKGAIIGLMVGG
Chain of Aβ34 G33A variant (G33A modified neo-epitope) (peptide, as listed by the source G33A G33A G33A G33A): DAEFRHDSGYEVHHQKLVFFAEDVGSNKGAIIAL
T4 sequence (P05067 672-713 limits assumed): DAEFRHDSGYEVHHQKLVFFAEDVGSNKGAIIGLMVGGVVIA
T5 sequence (peptide, as listed by the source): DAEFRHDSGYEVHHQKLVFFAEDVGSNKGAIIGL
T3 sequence (P05067 672-711 limits assumed): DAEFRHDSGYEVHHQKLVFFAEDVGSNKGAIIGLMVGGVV

B1: mab34 (monoclonal neo-epitope anti-Aβ34 antibody) (antibody, V domains shown)
VH: VKLVESGGGLVKPGGSLKLSCAASGFTFSTYAMSWVRQTPEKRLEWVASISSGGNTYYPDSVKGRFTISRDNARHILYLQMSSLRSEDTAMYYCARDSYYFGNSVYYAMDYWGQGTSVTVSS
VL: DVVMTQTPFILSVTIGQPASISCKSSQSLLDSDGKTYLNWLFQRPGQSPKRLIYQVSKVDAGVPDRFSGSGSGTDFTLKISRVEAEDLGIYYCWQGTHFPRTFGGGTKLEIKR
notes: Mouse monoclonal from a hybridoma (Balb/cJ mice immunised with Aβ27-34-KLH); In SPR it was captured on an anti-mouse Fc surface
B1: the binding result in assay [1], in assay [2], in assay [3], in assay [4] and in assay [5] was “no binding (tested: 2000 nM)” throughout. Moreover, in assay [6], the Kd was roughly 40 nM.
